Legend:
[1] = molecular target: T1, MHC-related protein 1 (MR1), hpMR1 (Homo sapiens, UniProt Q95460); test: DSF of refolded complex; assay type: binding
[2] = molecular target: T1, MHC-related protein 1 (MR1), hpMR1; test: 1D […] NMR titration; assay type: binding
[3] = molecular target: TAPBPR^WT (luminal domain of TAPBPR C94S); test: SPR

Row | Kd [3] [µM] | Compound | further results
1 | – | O=Cc1c(O)ccc2ccccc12 [2OH1NA, 2-hydroxy-1-naphthaldehyde] | DSF of refolded complex (Tm 55.3 °C); NMR methyl HMQC [1]: 55.3 °C
2 | – | O=C(O)Cc1ccccc1Nc1c(Cl)cc(F)cc1Cl [19F-DCF, 2-(2-((2,6-dichloro-4-fluorophenyl)amino)phenyl)acetic acid] | Kd [2]: 36.1 µM
3 | 100 | Ac-6-FP loaded hMR1 C262S/hβ2m (from UniProt P61769 21-119) (complex) | –
4 | 100 | Ac-6-FP loaded hMR1/hβ2m (wild type) (from UniProt P61769 21-119) (complex) | –
5 | 104 | Ac-6-FP–hpMR1–bβ2m (from UniProt Q95460 23-290; P01888 21-118) (complex) | –
6 | 0.082 | UV-irradiated HLA-A*02:01/hβ2m (empty, peptide-deficient) (from UniProt P61769 21-119) (complex) | –

Row | Compound | Kd [3] [µM] | further results
7 | TAX9/HLA-A*02:01/hβ2m (from UniProt P61769 21-119) (peptide-MHC) | 18.5 | –

— article PMC9703140 (Nature chemical biology, 2022)
